{
  "source": "the supplement of paper PMC10567573",
  "parents": {"B1": {"name": "INTS3 (parent)", "chain": "FSDDEEDLNSKGKKREFRFHPIKE"}},
  "data": [
    {"variants_of": "B1", "assay": "protein stability index of a GFP-peptide fusion (GPS, HEK-293T) (PSI 1-6); higher = more stable", "conditions": "c terminus: a fixed tail appended", "values": [
      {"variant": "FSDDEEDLNSKGKKREFRFRPIKE", "note": "[H20R]", "protein stability index": 4.24},
      {"variant": "FSDDEEDLNSKGKKREFRFHDIKE", "note": "[P21D]", "protein stability index": 3.76},
      {"variant": "FSDDEEDLNSKGKKREFRFHFIKE", "note": "[P21F]", "protein stability index": 3.58},
      {"variant": "FSDDEEDLNSKGKKREFRFHAIKE", "note": "[P21A]", "protein stability index": 3.98},
      {"variant": "FSDDEEDLNSKGKKREFRFHEIKE", "note": "[P21E]", "protein stability index": 4},
      {"variant": "FSDDEEDLNSKGKKREFRFHCIKE", "note": "[P21C]", "protein stability index": 3.28},
      {"variant": "FSDDEEDLNSKGNKREFRFHPIKE", "note": "[K13N]", "protein stability index": 3.2},
      {"variant": "FSDDEEDLNSKGYKREFRFHPIKE", "note": "[K13Y]", "protein stability index": 3.02},
      {"variant": "FSDDEEDLNSKGWKREFRFHPIKE", "note": "[K13W]", "protein stability index": 2.29},
      {"variant": "FSDDEEDLNSKGRKREFRFHPIKE", "note": "[K13R]", "protein stability index": 2.99},
      {"variant": "FSDDEEDLNSKGEKREFRFHPIKE", "note": "[K13E]", "protein stability index": 3.6},
      {"variant": "FSDDEEDLNSKGSKREFRFHPIKE", "note": "[K13S]", "protein stability index": 3.06},
      {"variant": "FSDDEEDLNSKGLKREFRFHPIKE", "note": "[K13L]", "protein stability index": 3.54},
      {"variant": "FSDDEEDLNSKGVKREFRFHPIKE", "note": "[K13V]", "protein stability index": 2.11},
      {"variant": "FSDDEEDLNSKGFKREFRFHPIKE", "note": "[K13F]", "protein stability index": 2.44},
      {"variant": "FSDDEEDLNSKGPKREFRFHPIKE", "note": "[K13P]", "protein stability index": 2.85},
      {"variant": "FSDDEEDLNSKGHKREFRFHPIKE", "note": "[K13H]", "protein stability index": 2.31},
      {"variant": "FSDDEEDLNSKGGKREFRFHPIKE", "note": "[K13G]", "protein stability index": 3.42},
      {"variant": "FSDDEEDLNSKGTKREFRFHPIKE", "note": "[K13T]", "protein stability index": 3.11},
      {"variant": "FSDDEEDLNSKGCKREFRFHPIKE", "note": "[K13C]", "protein stability index": 2.89},
      {"variant": "FSDDEEDLNSKGQKREFRFHPIKE", "note": "[K13Q]", "protein stability index": 3.29},
      {"variant": "FSDDEEDLNSKGDKREFRFHPIKE", "note": "[K13D]", "protein stability index": 3.4},
      {"variant": "FSDDEEDLNSKGAKREFRFHPIKE", "note": "[K13A]", "protein stability index": 3.41},
      {"variant": "FSDDEEDLNSKGIKREFRFHPIKE", "note": "[K13I]", "protein stability index": 2.31},
      {"variant": "FSDDEEDLNSKGMKREFRFHPIKE", "note": "[K13M]", "protein stability index": 3.23},
      {"variant": "FSDDEEDLNSKGKKREFEFHPIKE", "note": "[R18E]", "protein stability index": 5.1},
      {"variant": "FSDDEEDLNSKGKKREFWFHPIKE", "note": "[R18W]", "protein stability index": 3.35},
      {"variant": "FSDDEEDLNSKGKKREFTFHPIKE", "note": "[R18T]", "protein stability index": 4.64},
      {"variant": "FSDDEEDLNSKGKKREFYFHPIKE", "note": "[R18Y]", "protein stability index": 4.36},
      {"variant": "FSDDEEDLNSKGKKREFGFHPIKE", "note": "[R18G]", "protein stability index": 4.77},
      {"variant": "FSDDEEDLNSKGKKREFAFHPIKE", "note": "[R18A]", "protein stability index": 4.33},
      {"variant": "FSDDEEDLNSKGKKREFQFHPIKE", "note": "[R18Q]", "protein stability index": 5.2},
      {"variant": "FSDDEEDLNSKGKKREFIFHPIKE", "note": "[R18I]", "protein stability index": 4.55},
      {"variant": "FSDDEEDLNSKGKKREFPFHPIKE", "note": "[R18P]", "protein stability index": 4.76},
      {"variant": "FSDDEEDLNSKGKKREFCFHPIKE", "note": "[R18C]", "protein stability index": 4.57},
      {"variant": "FSDDEEDLNSKGKKREFLFHPIKE", "note": "[R18L]", "protein stability index": 4.57},
      {"variant": "FSDDEEDLNSKGKKREFMFHPIKE", "note": "[R18M]", "protein stability index": 4.9},
      {"variant": "FSDDEEDLNSKGKKREFKFHPIKE", "note": "[R18K]", "protein stability index": 4.63},
      {"variant": "FSDDEEDLNSKGKKREFSFHPIKE", "note": "[R18S]", "protein stability index": 4.12},
      {"variant": "FSDDEEDLNSKGKKREFFFHPIKE", "note": "[R18F]", "protein stability index": 3.27},
      {"variant": "FSDDEEDLNSKGKKREFNFHPIKE", "note": "[R18N]", "protein stability index": 5.14},
      {"variant": "FSDDEEDLNSKGKKREFDFHPIKE", "note": "[R18D]", "protein stability index": 4.94},
      {"variant": "FSDDEEDLNSKGKKREFVFHPIKE", "note": "[R18V]", "protein stability index": 4.56},
      {"variant": "FSDDEEDLNSKGKKREFHFHPIKE", "note": "[R18H]", "protein stability index": 4.85},
      {"variant": "FSDDEEDLNSKGKRREFRFHPIKE", "note": "[K14R]", "protein stability index": 2.88},
      {"variant": "FSDDEEDLNSKGKSREFRFHPIKE", "note": "[K14S]", "protein stability index": 3.79},
      {"variant": "FSDDEEDLNSKGKQREFRFHPIKE", "note": "[K14Q]", "protein stability index": 3.1},
      {"variant": "FSDDEEDLNSKGKYREFRFHPIKE", "note": "[K14Y]", "protein stability index": 2.48},
      {"variant": "FSDDEEDLNSKGKNREFRFHPIKE", "note": "[K14N]", "protein stability index": 3.27},
      {"variant": "FSDDEEDLNSKGKIREFRFHPIKE", "note": "[K14I]", "protein stability index": 1.88},
      {"variant": "FSDDEEDLNSKGKHREFRFHPIKE", "note": "[K14H]", "protein stability index": 2.86},
      {"variant": "FSDDEEDLNSKGKGREFRFHPIKE", "note": "[K14G]", "protein stability index": 2.96},
      {"variant": "FSDDEEDLNSKGKTREFRFHPIKE", "note": "[K14T]", "protein stability index": 3.46},
      {"variant": "FSDDEEDLNSKGKMREFRFHPIKE", "note": "[K14M]", "protein stability index": 1.41},
      {"variant": "FSDDEEDLNSKGKVREFRFHPIKE", "note": "[K14V]", "protein stability index": 2.03},
      {"variant": "FSDDEEDLNSKGKFREFRFHPIKE", "note": "[K14F]", "protein stability index": 2.13},
      {"variant": "FSDDEEDLNSKGKAREFRFHPIKE", "note": "[K14A]", "protein stability index": 3.01},
      {"variant": "FSDDEEDLNSKGKCREFRFHPIKE", "note": "[K14C]", "protein stability index": 2.66},
      {"variant": "FSDDEEDLNSKGKDREFRFHPIKE", "note": "[K14D]", "protein stability index": 3.73},
      {"variant": "FSDDEEDLNSKGKEREFRFHPIKE", "note": "[K14E]", "protein stability index": 3.44},
      {"variant": "FSDDEEDLNSKGKPREFRFHPIKE", "note": "[K14P]", "protein stability index": 3.46},
      {"variant": "FSDDEEDLNSKGKLREFRFHPIKE", "note": "[K14L]", "protein stability index": 2.11},
      {"variant": "FSDDEEDLNSKGKWREFRFHPIKE", "note": "[K14W]", "protein stability index": 1.53},
      {"variant": "FSDDEEDLNSKGKKRMFRFHPIKE", "note": "[E16M]", "protein stability index": 2.74},
      {"variant": "FSDDEEDLNSKGKKRTFRFHPIKE", "note": "[E16T]", "protein stability index": 2.67},
      {"variant": "FSDDEEDLNSKGKKRRFRFHPIKE", "note": "[E16R]", "protein stability index": 2.23},
      {"variant": "FSDDEEDLNSKGKKRAFRFHPIKE", "note": "[E16A]", "protein stability index": 2.25},
      {"variant": "FSDDEEDLNSKGKKRWFRFHPIKE", "note": "[E16W]", "protein stability index": 2.45},
      {"variant": "FSDDEEDLNSKGKKRKFRFHPIKE", "note": "[E16K]", "protein stability index": 3.69},
      {"variant": "FSDDEEDLNSKGKKRCFRFHPIKE", "note": "[E16C]", "protein stability index": 2.37},
      {"variant": "FSDDEEDLNSKGKKRPFRFHPIKE", "note": "[E16P]", "protein stability index": 2.17},
      {"variant": "FSDDEEDLNSKGKKRVFRFHPIKE", "note": "[E16V]", "protein stability index": 2.89},
      {"variant": "FSDDEEDLNSKGKKRFFRFHPIKE", "note": "[E16F]", "protein stability index": 3.05},
      {"variant": "FSDDEEDLNSKGKKRGFRFHPIKE", "note": "[E16G]", "protein stability index": 2.41},
      {"variant": "FSDDEEDLNSKGKKRSFRFHPIKE", "note": "[E16S]", "protein stability index": 2.93},
      {"variant": "FSDDEEDLNSKGKKRIFRFHPIKE", "note": "[E16I]", "protein stability index": 2.58},
      {"variant": "FSDDEEDLNSKGKKRQFRFHPIKE", "note": "[E16Q]", "protein stability index": 2.61},
      {"variant": "FSDDEEDLNSKGKKRLFRFHPIKE", "note": "[E16L]", "protein stability index": 3.46},
      {"variant": "FSDDEEDLNSKGKKRDFRFHPIKE", "note": "[E16D]", "protein stability index": 4},
      {"variant": "FSDDEEDLNSKGKKRHFRFHPIKE", "note": "[E16H]", "protein stability index": 3.08},
      {"variant": "FSDDEEDLNSKGKKRYFRFHPIKE", "note": "[E16Y]", "protein stability index": 2.61},
      {"variant": "FSDDEEDLNSKGKKRNFRFHPIKE", "note": "[E16N]", "protein stability index": 2.88},
      {"variant": "FSDDEEDLNSRGKKREFRFHPIKE", "note": "[K11R]", "protein stability index": 3.2},
      {"variant": "FSDDEEDLNSVGKKREFRFHPIKE", "note": "[K11V]", "protein stability index": 2.89},
      {"variant": "FSDDEEDLNSQGKKREFRFHPIKE", "note": "[K11Q]", "protein stability index": 3.62},
      {"variant": "FSDDEEDLNSYGKKREFRFHPIKE", "note": "[K11Y]", "protein stability index": 3.29},
      {"variant": "FSDDEEDLNSSGKKREFRFHPIKE", "note": "[K11S]", "protein stability index": 3.22},
      {"variant": "FSDDEEDLNSPGKKREFRFHPIKE", "note": "[K11P]", "protein stability index": 3.38},
      {"variant": "FSDDEEDLNSTGKKREFRFHPIKE", "note": "[K11T]", "protein stability index": 3.35},
      {"variant": "FSDDEEDLNSWGKKREFRFHPIKE", "note": "[K11W]", "protein stability index": 1.9},
      {"variant": "FSDDEEDLNSLGKKREFRFHPIKE", "note": "[K11L]", "protein stability index": 2.73},
      {"variant": "FSDDEEDLNSMGKKREFRFHPIKE", "note": "[K11M]", "protein stability index": 2.79},
      {"variant": "FSDDEEDLNSNGKKREFRFHPIKE", "note": "[K11N]", "protein stability index": 3.44},
      {"variant": "FSDDEEDLNSIGKKREFRFHPIKE", "note": "[K11I]", "protein stability index": 3.48}
    ]}
  ]
}
